Measurements taken from US6660467 (INSTITUTO DI RICERCHE DI BIOLOGIA MOLECOLARE P ANGELETTI S …, dated 2003).
Substitutions are numbered along the chain they refer to. Blank lines part the entries; values can stand above or below the binder they belong to.

How the values were obtained:
[1] = molecular target: T1, membrane-bound CNTFR (m-CNTFR), full-length human CNTFR (amino acids 1-372) (human, UniProt P26992 23-342); assay: CNTF surface binding on HepG2 cells stably transfected with full-length human CNTFR
T1 construct: whole, on cells; also called full-length CNTFR; CNTFR on HepG2/CNTFR cells
T1 sequence (looked up): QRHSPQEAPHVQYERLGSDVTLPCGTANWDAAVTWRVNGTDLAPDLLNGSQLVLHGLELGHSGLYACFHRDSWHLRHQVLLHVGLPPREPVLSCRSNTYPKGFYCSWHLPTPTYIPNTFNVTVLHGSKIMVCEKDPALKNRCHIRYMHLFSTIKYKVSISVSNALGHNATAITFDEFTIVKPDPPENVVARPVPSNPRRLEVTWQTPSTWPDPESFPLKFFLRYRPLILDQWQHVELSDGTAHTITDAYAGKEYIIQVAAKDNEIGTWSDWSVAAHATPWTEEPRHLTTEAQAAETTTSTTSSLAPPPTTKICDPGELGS

[2] = molecular target: T2, solid phase-immobilized CNTFR (UniProt P26992 23-342, limits assumed); assay: competition with biotinylated CNTF for binding to solid phase-immobilized CNTFR
T2 construct: also called CNTF alpha-receptor
T2 sequence (looked up): T1 sequence (looked up)
Method: The CNTFR binding activity of CNTF and IA-CNTF was determined by measuring the ability of the proteins to compete with biotinylated CNTF for binding to solid phase-immobilized CNTFR, using a previously described procedure (Saggio et al., 1994; Saggio et al., 1995).

soluble CNTFR (s-CNTFR) = molecular target: T3, soluble CNTFR (s-CNTFR) (UniProt P26992 23-346, limits assumed); assay: cell-based or functional assay
T3 sequence (looked up): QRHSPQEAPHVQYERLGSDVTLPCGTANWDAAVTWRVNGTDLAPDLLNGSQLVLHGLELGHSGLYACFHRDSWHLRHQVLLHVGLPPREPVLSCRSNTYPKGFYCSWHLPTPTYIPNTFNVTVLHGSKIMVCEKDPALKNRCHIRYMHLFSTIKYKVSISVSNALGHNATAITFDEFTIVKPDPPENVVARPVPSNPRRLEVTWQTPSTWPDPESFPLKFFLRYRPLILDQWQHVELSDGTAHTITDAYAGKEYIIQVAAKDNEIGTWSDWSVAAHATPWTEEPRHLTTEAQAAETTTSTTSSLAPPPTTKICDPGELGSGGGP

- binding result [1]: binds
B1: human ciliary neurotrophic factor, wild type (hCNTF; SEQ ID NO: 1) (ligand)
chain: MAFTEHSPLTPHRRDLCSRSIWLARKIRSDLTALTESYVKHQGLNKNINLDSADGMPVASTDQWSELTEAERLQENLQAYRTFHVLLARLLEDQQVHFTPTEGDFHQAIHTLLLQVAAFAYQIEELMILLEYKIPRNEADGMPINVGDGGLFEKKLWGLKVLQELSQWTVRSIHDLRFISSHQTGIPARGSHYIANNKKM
notes: also called human CNTF; wild-type CNTF

- fold reduction of affinity against wild-type CNTF [2]: 15 fold
- stimulation of haptoglobin production in HepG2 cells at a subsaturating concentration of s-CNTFR; EC50 relative to CNTF (soluble CNTFR (s-CNTFR)): 5 fold (EC50 relative to CNTF)
B2: Thr169Ile/His174Ala/human CNTF (IA-CNTF; SEQ ID NO:2) (ligand)
chain: B1 chain with T169I, H174A
notes: Produced in E. coli, purified by reverse-phase HPLC; also called Thr169Ile/His174Ala/hCNTF
